Earlier results on four substances are cited in publication PMC5744648.

pKd: −log10 of the molar value.

For series [1], the target named is CMKLR1 (Chemerin1) (Mus musculus) (UniProt P97468). Briefly: radioligand binding.
The target in series [2] is CMKLR1 (Chemerin1) (Homo sapiens) (UniProt Q99788). The experiment in a line: radioligand.
The target in series [3] is GPR1 (Chemerin2) (Homo sapiens) (UniProt P46091). Briefly: radioligand binding.
The target is the same in series [4]. The experiment in a line: radioligand.

Chemerin 21-157, sequence (Q99969 21-157): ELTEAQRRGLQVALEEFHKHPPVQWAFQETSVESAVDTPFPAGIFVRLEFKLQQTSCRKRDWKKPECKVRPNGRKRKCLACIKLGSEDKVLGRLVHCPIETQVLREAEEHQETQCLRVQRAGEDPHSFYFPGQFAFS
CMKLR1 (Chemerin1) (Homo sapiens), sequence (Q99788 whole entry): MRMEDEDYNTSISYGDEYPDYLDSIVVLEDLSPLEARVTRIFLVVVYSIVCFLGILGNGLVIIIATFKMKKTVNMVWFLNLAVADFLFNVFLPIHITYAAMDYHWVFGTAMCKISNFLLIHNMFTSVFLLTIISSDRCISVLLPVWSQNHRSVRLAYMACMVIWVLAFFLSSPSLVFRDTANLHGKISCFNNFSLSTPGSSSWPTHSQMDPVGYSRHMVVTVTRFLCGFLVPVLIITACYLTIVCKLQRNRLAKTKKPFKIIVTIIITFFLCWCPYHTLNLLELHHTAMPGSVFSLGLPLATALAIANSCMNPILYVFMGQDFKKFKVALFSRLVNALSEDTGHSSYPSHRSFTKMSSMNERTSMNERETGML
GPR1 (Chemerin2) (Homo sapiens), sequence (P46091 whole entry): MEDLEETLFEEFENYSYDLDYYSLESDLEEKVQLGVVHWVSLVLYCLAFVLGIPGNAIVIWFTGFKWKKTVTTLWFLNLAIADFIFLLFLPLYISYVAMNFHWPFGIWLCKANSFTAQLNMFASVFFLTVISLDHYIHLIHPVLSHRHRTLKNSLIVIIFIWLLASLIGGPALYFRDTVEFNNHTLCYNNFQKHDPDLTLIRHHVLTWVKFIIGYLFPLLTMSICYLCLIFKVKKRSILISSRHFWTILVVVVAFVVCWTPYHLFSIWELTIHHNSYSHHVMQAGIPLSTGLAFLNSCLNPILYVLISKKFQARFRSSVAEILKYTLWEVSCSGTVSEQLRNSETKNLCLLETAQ
Chemerin 21-148, sequence (Q99969 21-148): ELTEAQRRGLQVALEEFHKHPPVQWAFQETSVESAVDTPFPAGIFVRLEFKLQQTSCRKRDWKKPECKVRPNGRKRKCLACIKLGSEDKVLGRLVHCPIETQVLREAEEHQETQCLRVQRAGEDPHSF
Chemerin C9 peptide 149-157, sequence (Q99969 whole entry, looked up, tested part not stated): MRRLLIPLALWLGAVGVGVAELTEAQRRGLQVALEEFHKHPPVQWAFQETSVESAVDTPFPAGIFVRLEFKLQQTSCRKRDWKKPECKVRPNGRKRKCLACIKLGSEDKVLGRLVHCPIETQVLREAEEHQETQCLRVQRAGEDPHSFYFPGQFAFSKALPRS
CMKLR1 (Chemerin1) (Mus musculus), sequence (P97468 whole entry): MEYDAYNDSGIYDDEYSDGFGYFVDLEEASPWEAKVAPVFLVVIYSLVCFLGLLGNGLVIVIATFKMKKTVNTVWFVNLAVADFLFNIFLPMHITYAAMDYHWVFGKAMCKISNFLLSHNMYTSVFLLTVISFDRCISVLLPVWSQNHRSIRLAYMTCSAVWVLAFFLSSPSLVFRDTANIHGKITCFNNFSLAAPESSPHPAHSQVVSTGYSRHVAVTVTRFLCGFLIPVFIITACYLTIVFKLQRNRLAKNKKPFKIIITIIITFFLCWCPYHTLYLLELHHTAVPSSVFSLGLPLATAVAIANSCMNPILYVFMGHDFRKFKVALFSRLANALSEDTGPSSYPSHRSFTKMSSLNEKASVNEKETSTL

The pKd is the negative decadic logarithm of the Kd, by convention in mol/L. With Chemerin 21-148 (from UniProt Q99969), in series [1], the pKd is 8.92.
Consider Chemerin 21-157 (from UniProt Q99969), for which the pKd in series [2] was 9.06; in series [3], 9.68.
For “Chemerin C9 peptide 149-157 (from UniProt Q99969)”, the pKd in series [4] was 8.28.
For the substance “Tyr-[Phe149]-chemerin146-157 146-157 (from UniProt Q99969)”, the pKd in series [2] was 7.66.
